Assay [1] addresses T1, mouse legumain (Mus musculus, UniProt O89017).
T1 construct: expressed in transfected cells; host or cells: HEK293 cells infected with adenovirus
T1 sequence (O89017 18-325): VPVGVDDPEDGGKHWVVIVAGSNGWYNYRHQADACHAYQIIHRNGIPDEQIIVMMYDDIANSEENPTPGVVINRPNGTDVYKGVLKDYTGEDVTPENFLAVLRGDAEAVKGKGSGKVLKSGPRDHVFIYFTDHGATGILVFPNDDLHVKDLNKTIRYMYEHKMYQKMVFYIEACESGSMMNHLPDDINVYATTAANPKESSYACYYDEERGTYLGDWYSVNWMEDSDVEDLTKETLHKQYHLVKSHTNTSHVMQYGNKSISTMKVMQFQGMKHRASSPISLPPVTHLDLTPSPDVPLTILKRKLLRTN
Nature of the assay: HEK293 cell-surface legumain activity assay (Z-AAN-MCA hydrolysis). Conditions: inhibitor at 100 nM, live HEK293 cells overexpressing mouse legumain, pH 5.8, FIG. 7. In kind it is cell-based. As to the method:
HEK293 cells were plated in 96-well black tissue culture plate (BD Biosciences) and infected with adenovirus expressing mouse legumain at MOI of 10. 24 hours post infection, the cells were washed once with legumain assay buffer [39.5 mM citric acid, 125 mM Na2HPO4 (pH 5.8), 1 mM EDTA, 0.8% NaCl], and 50 μl of assay buffer containing 10 nM of the substrate Z-AAN-MCA (Peptide Institute, Louisville, Ky.) was added to each well. The protease inhibitors cystatin C(R&D Systems, Minneapolis, Minn.) or E64 (Sigma) were included in the assay buffer at a concentration of 100 nM. The plates were incubated at 37° C. for 10 min and measured for fluorescence in a VICTOR 3™ fluorescence plate reader (PerkinElmer, Wellesley, Mass.) using an excitation filter of 360 nm and an emission filter of 460 nm. Repeated measurements were carried out once every 5 min over a period of 20 min at room temperature. The increase of fluorescence over time was plotted.

For assay [2], the system named is legumain. The conditions noted are these: background literature; cited from earlier work.
Assay [3] deals with primary human monocytes. Nature of the assay: Human monocytes migration assay (modified Boyden chamber). The format is cell-based. The conditions noted are these: for chemoattractant function: data not shown. As to the method:
Human monocytes were isolated from the blood of healthy donors using the negative selection method with the Monocyte Isolation Kit (Miltenyi Biotech) according to manufacturer's instructions. The purity of isolated monocytes was confirmed by flow cytometry on CD 14-stained cells. Cells were tested in a modified Boyden chamber assay using Multi Screen 96-well filtration plate (Millipore, 5.0 μm pore size). Serum-starved monocytes were added to the top chamber (20,000 cells/well), and serum-free culture medium was added to the bottom chamber with or without purified legumain (R&D Systems). VEGF (R&D Systems) was used as a positive control. Cells that migrated into the bottom chamber were quantified using a luminescent cell viability assay (CellTiter-Glo® Assay, Promega, Madison, Wis.) at 2 hours.

For assay [4], the system named is HUVECs. As to the kind of experiment: In vitro wound-healing assay, HUVECs. In kind it is cell-based, human. As to the method:
(§1) HEK293 cells (ATCC, Manassas, Va.) used at passage 10 and HUVECs (Cambrex, Walkersville, Md.) used at passage 3 were seeded onto single-chamber slides (Lab-Tek cat# 177410, Campbell, Calif.). HEK293 cells were cultured to >80% confluence in DMEM supplemented with 10% FBS and 1% penicillin/streptomycin/L-glutamine (Cat# 10378-016, Gibco, Invitrogen, Carlsbad, Calif.), and HUVECs were grown to >90% confluence in EGM (Cat# CC-3124, Cambrex, East Rutherford, N.J.). After washing the cells in serum-free medium, the monolayers were mechanically wounded using a cell scraper (Cat# 3010, Costar [Corning], Fisher Scientific, Pittsburgh, Pa.) to obtain a rectangular denuded area of 2.0×1.7 cm^2. Wounded cells were then incubated in serum-free medium supplemented with 0.05% delipidized BSA (BD Biosciences, Bedford, Mass.) and with VEGF (10 ng/mL, R&D Systems, Minneapolis, Minn.) or legumain (10 ng/mL or 25 ng/mL, R&D Systems, Minneapolis, Minn.) for 24 hours (HEK293 cells) or 20 hours (HUVECs). Wound healing was quantified by measuring the number of cells present in the area of the initial wound using a luminescent cell viability assay (CellTiter-Glo® Assay, Promega, Madison, Wis.).

Assay [5] deals with HUVECs. Nature of the assay: Modified Boyden chamber Matrigel invasion assay, HUVECs. In kind it is cell-based, human. An excerpt:
In a modified Boyden chamber assay, 25,000 serum starved HUVECs loaded into the top chamber were allowed to invade a Matrigel coated PET membrane ([…], Becton Dickinson, BioCoat Angiogenesis System: Endothelial Cell Invasion) in response to purified legumain added to the bottom chamber. Cells that invaded through the Matrigel matrix were quantified using a luminescent cell viability assay (CellTiter-Glo® Assay, Promega, Madison, Wis.). VEGF was used a positive control.

In assay [6] the test system is HEK293 cells. Nature of the assay: In vitro wound-healing assay, HEK293 cells. The format is cell-based, human. The conditions noted are these: legumain at 10 ng/mL and 25 ng/mL, 24 hours, p<0.05, FIG. 8. As for the experimental part: as §1

* marks the point of attachment. Fmoc = O=C(OCC1c2ccccc2-c2ccccc21)*

On to `CC(C)C[C@H](NC(=O)[C@H]1O[C@@H]1C(=O)O)C(=O)NCCCCN=C(N)N` (relative stereo) [E64, trans-epoxysuccinyl-L-leucylamido-(4-guanidino)butane, reference compound], for which the “inhibition of cell-surface legumain activity” value in assay [1] was “not”. Further, in assay [2], the “effect on legumain activity” value is recorded as “unaffected”.
`[Cu+2]` [Cu2+]: the “effect on legumain activity” value in assay [2] is recorded as “inhibition”.
As for `[Hg+2]` [Hg2+], the “effect on legumain activity” value in assay [2] is reported as “inhibition”.
As for `Cc1cccc(C)c1C(=O)OCC(=O)C(CC(N)=O)NC(=O)OCc1ccccc1` (stereo not shown) [MV026630, 2,6-dimethyl-benzoic acid 3-benzyloxycarbonylamino-4-carbamoyl-2-oxo-butyl ester], the “effect on legumain activity” value in assay [2] is on record as “inhibit”.
As to `C[C@H](NC(=O)[C@H](Cc1ccccc1)NC(=O)OCc1ccccc1)C(=O)C=[N+]=[N-]` [Z-Phe-Ala-CHN2], in assay [2], the “effect on legumain activity” value is recorded as “unaffected”.
`CC(=O)N[C@@H](CC(C)C)C(=O)N[C@@H](CC(C)C)C(=O)N[C@H](C=O)CCCNC(=N)N` [leupeptin]: the “effect on legumain activity” value in assay [2] is listed as “unaffected”.
As to `O=S(=O)(O)c1cc[c]([Hg][Cl])cc1` [p-chloromercuribenzene-sulfonic acid], the “effect on legumain activity” value in assay [2] is “inhibition”.
As to Fmoc-AENK-NH2, the “effect on legumain activity” value in assay [2] is recorded as “inhibitor”.
Turning to VEGF [reference compound], the “number of migrated cells compared with legumain at 25 ng/mL” value in assay [3] (VEGF at 10 ng/mL, positive control) is listed as “similar”. Further, in assay [4] (VEGF at 10 ng/mL, positive control, FIG. 9), the “increase in migration compared with legumain at 25 ng/mL” value was “same extent”. Also, the “invasion response compared with 25 ng/mL legumain” value in assay [5] (10 ng/mL VEGF, 22 hour period) is reported as “similar”.

B1: cystatin M: cystatin reported to inhibit legumain (protein, UniProt Q15828 29-149, looked up)
Cystatin-M: RPQERMVGELRDLSPDDPQVQKAAQAAVASYNMGSNSIYYFRDTHIIKAQSQLVAGIKYFLTMEMGSTDCRKTRVTGDHVDLTTCPLAAGAQQEKLRCDFEVLVVPWQNSSQLLKHNCVQM
B1: the “effect on legumain activity” value in assay [2] is recorded as “inhibited”.

B2: ovocystatin: cystatin reported to inhibit legumain (protein, UniProt P01038 24-139, looked up)
Cystatin: SEDRSRLLGAPVPVDENDEGLQRALQFAMAEYNRASNDKYSSRVVRVISAKRQLVSGIKYILQVEIGRTTCPKSSGDLQSCEFHDEPEMAKYTTCTFVVYSIPWLNQIKLLESKCQ
Consider B2, for which, in assay [2], the “effect on legumain activity” value is recorded as “inhibited”.

B3: heat-denatured form: heat-denatured form of legumain (protein, UniProt Q99538 18-323, looked up)
Legumain: VPIDDPEDGGKHWVVIVAGSNGWYNYRHQADACHAYQIIHRNGIPDEQIVVMMYDDIAYSEDNPTPGIVINRPNGTDVYQGVPKDYTGEDVTPQNFLAVLRGDAEAVKGIGSGKVLKSGPQDHVFIYFTDHGSTGILVFPNEDLHVKDLNETIHYMYKHKMYRKMVFYIEACESGSMMNHLPDNINVYATTAANPRESSYACYYDEKRSTYLGDWYSVNWMEDSDVEDLTKETLHKQYHLVKSHTNTSHVMQYGNKTISTMKVMQFQGMKRKASSPVPLPPVTHLDLTPSPDVPLTIMKRKLMNTN
modifications: heat-denatured
notes: heat-denatured form of legumain
For the molecule B3, in assay [3], the chemoattractant function result is recorded as “retain the chemoattractant function”.

B4: cystatin C: protease inhibitor cystatin C (R&D Systems) (protein, UniProt P01034 27-146, looked up)
Cystatin-C: SSPGKPPRLVGGPMDASVEEEGVRRALDFAVGEYNKASNDMYHSRALQVVRARKQIVAGVNYFLDVELGRTTCTKTQPNLDNCPFHDQPHLKRKAFCSFQIYAVPWQGTMTLSKSTCQDA
Turning to B4, the “inhibition of cell-surface legumain activity” value in assay [1] is on record as “inhibited”. The “effect on legumain activity” value in assay [2] is given as “inhibited”.

B5: legumain: purified proform of the lysosomal cysteine protease legumain (R&D Systems), tested as chemoattractant (protein)
chain: VPVGVDDPEDGGKHWVVIVAGSNGWYNYRHQADACHAYQIIHRNGIPDEQIIVMMYDDIANSEENPTPGVVINRPNGTDVYKGVLKDYTGEDVTPENFLAVLRGDAEAVKGKGSGKVLKSGPRDHVFIYFTDHGATGILVFPNDDLHVKDLNKTIRYMYEHKMYQKMVFYIEACESGSMMNHLPDDINVYATTAANPKESSYACYYDEERGTYLGDWYSVNWMEDSDVEDLTKETLHKQYHLVKSHTNTSHVMQYGNKSISTMKVMQFQGMKHRASSPISLPPVTHLDLTPSPDVPLTILKRKLLRTN
Turning to B5, the “fold increase in migration of monocytes relative to control” value in assay [3] (25 ng/mL, 2 hours) came out at 2.3 fold. Moreover, in assay [3] (Boyden chamber, 2 hours, FIG. 6), the “migration of human monocytes towards legumain” value was “dose-dependent increase”. In addition, the chemoattractant function entry in assay [3] is given as “retain the chemoattractant function”. Also, the “minimal effective concentration of legumain” value in assay [3] (migration of primary human monocytes, Boyden chamber, 2 hours) worked out at 25 ng/mL. The “cell migration relative to control” value in assay [6] is “significant increase in cell migration”; in assay [4] (legumain at 25 ng/mL, 20 hours, p<0.05, FIG. 9), “significant increase in cell migration”. In assay [5] (22 hour period, FIG. 10), the “number of cells invading a Matrigel coated membrane” value is on record as “dose-dependent increase”. Besides, the “cell invasion relative to control” value in assay [5] (legumain at 25 ng/mL, p<0.05, FIG. 10) was “significant increase in cell invasion”.

(Values after patent publication US20100158924A1, “Expression of the cysteine protease legumain in vascular and inflammatory diseases” (Wyeth, LLC, priority 2006, published 2010).)
